In the MegaScale stability set (Tsuboyama et al. 2023):

B1: 5KPH (parent)
chain: EEKRQVKQVAKEKLLEQSPNSKVQVRRVQKQGNTIRVELELRTNGKKENYTVEVERQGNTWTVKRITRT

Variants of: B1
Experiment: folding stability dG (cDNA display proteolysis); higher = more stable
Settings: PBS, room temperature

In order of falling “folding stability dG” value:
1. EEKRQVKQVAKEKLLEISPNSKVQVRRVQKQGNTIRVELELRTNGKKENYTVEVERQGNTWTVKRITRT [Q17I]  4.39 kcal/mol
2. EEKRQVKQVAKEVLLEQSPNSKVQVRRVQKQGNTIRVELELRTNGKKENYTVEVERQGNTWTVKRITRT [K13V]  4.12 kcal/mol
3. EEKRQVKQVAKEKLLEFSPNSKVQVRRVQKQGNTIRVELELRTNGKKENYTVEVERQGNTWTVKRITRT [Q17F]  4.12 kcal/mol
4. EEKRQVKQVAKEYLLEQSPNSKVQVRRVQKQGNTIRVELELRTNGKKENYTVEVERQGNTWTVKRITRT [K13Y]  4.07 kcal/mol
5. EEKRQVKQVAKEILLEQSPNSKVQVRRVQKQGNTIRVELELRTNGKKENYTVEVERQGNTWTVKRITRT [K13I]  4.04 kcal/mol
6. EEKRQVKQVAKEKLLEHSPNSKVQVRRVQKQGNTIRVELELRTNGKKENYTVEVERQGNTWTVKRITRT [Q17H]  4.04 kcal/mol
7. EEKRQVKQVAKEKMLEQSPNSKVQVRRVQKQGNTIRVELELRTNGKKENYTVEVERQGNTWTVKRITRT [L14M]  4.02 kcal/mol
8. EEKRQVKQVAKEKLLAQSPNSKVQVRRVQKQGNTIRVELELRTNGKKENYTVEVERQGNTWTVKRITRT [E16A]  3.8 kcal/mol
9. EEKRQVKQVAKETLLEQSPNSKVQVRRVQKQGNTIRVELELRTNGKKENYTVEVERQGNTWTVKRITRT [K13T]  3.78 kcal/mol
10. EEKRQVKQVAKEKLLQQSPNSKVQVRRVQKQGNTIRVELELRTNGKKENYTVEVERQGNTWTVKRITRT [E16Q]  3.77 kcal/mol
11. EEKRQVKQVAKEKLLECSPNSKVQVRRVQKQGNTIRVELELRTNGKKENYTVEVERQGNTWTVKRITRT [Q17C]  3.75 kcal/mol
12. EEKRQVKQVAKEKILEQSPNSKVQVRRVQKQGNTIRVELELRTNGKKENYTVEVERQGNTWTVKRITRT [L14I]  3.75 kcal/mol
13. EEKRQVKQVAKEMLLEQSPNSKVQVRRVQKQGNTIRVELELRTNGKKENYTVEVERQGNTWTVKRITRT [K13M]  3.7 kcal/mol
14. EEKRQVKQVAKEKLMEQSPNSKVQVRRVQKQGNTIRVELELRTNGKKENYTVEVERQGNTWTVKRITRT [L15M]  3.7 kcal/mol
15. EEKRQVKQVAKEKLLEASPNSKVQVRRVQKQGNTIRVELELRTNGKKENYTVEVERQGNTWTVKRITRT [Q17A]  3.68 kcal/mol
16. EEKRQVKQVAKESLLEQSPNSKVQVRRVQKQGNTIRVELELRTNGKKENYTVEVERQGNTWTVKRITRT [K13S]  3.66 kcal/mol
17. EEKRQVKQVAKEKVLEQSPNSKVQVRRVQKQGNTIRVELELRTNGKKENYTVEVERQGNTWTVKRITRT [L14V]  3.65 kcal/mol
18. EEKRQVKQVAKEKLLEGSPNSKVQVRRVQKQGNTIRVELELRTNGKKENYTVEVERQGNTWTVKRITRT [Q17G]  3.64 kcal/mol
19. EEKRQVKQVAKERLLEQSPNSKVQVRRVQKQGNTIRVELELRTNGKKENYTVEVERQGNTWTVKRITRT [K13R]  3.61 kcal/mol
20. EEKRQVKQVAKEHLLEQSPNSKVQVRRVQKQGNTIRVELELRTNGKKENYTVEVERQGNTWTVKRITRT [K13H]  3.57 kcal/mol
21. EEKRQVKQVAKEKLLSQSPNSKVQVRRVQKQGNTIRVELELRTNGKKENYTVEVERQGNTWTVKRITRT [E16S]  3.55 kcal/mol
22. EEKRQVKQVAKEWLLEQSPNSKVQVRRVQKQGNTIRVELELRTNGKKENYTVEVERQGNTWTVKRITRT [K13W]  3.48 kcal/mol
23. EEKRQVKQVAKEKLLLQSPNSKVQVRRVQKQGNTIRVELELRTNGKKENYTVEVERQGNTWTVKRITRT [E16L]  3.47 kcal/mol
24. EEKRQVKQVAKEKLLEDSPNSKVQVRRVQKQGNTIRVELELRTNGKKENYTVEVERQGNTWTVKRITRT [Q17D]  3.46 kcal/mol
25. EEKRQVKQVAKELLLEQSPNSKVQVRRVQKQGNTIRVELELRTNGKKENYTVEVERQGNTWTVKRITRT [K13L]  3.42 kcal/mol
26. EEKRQVKQVAKEKLQEQSPNSKVQVRRVQKQGNTIRVELELRTNGKKENYTVEVERQGNTWTVKRITRT [L15Q]  3.42 kcal/mol
27. EEKRQVKQVAKEKLLMQSPNSKVQVRRVQKQGNTIRVELELRTNGKKENYTVEVERQGNTWTVKRITRT [E16M]  3.38 kcal/mol
28. EEKRQVKQVAKEKLKEQSPNSKVQVRRVQKQGNTIRVELELRTNGKKENYTVEVERQGNTWTVKRITRT [L15K]  3.36 kcal/mol
29. EEKRQVKQVAKEKLLTQSPNSKVQVRRVQKQGNTIRVELELRTNGKKENYTVEVERQGNTWTVKRITRT [E16T]  3.34 kcal/mol
30. EEKRQVKQVAKEKLREQSPNSKVQVRRVQKQGNTIRVELELRTNGKKENYTVEVERQGNTWTVKRITRT [L15R]  3.33 kcal/mol
31. EEKRQVKQVAKEKLLEESPNSKVQVRRVQKQGNTIRVELELRTNGKKENYTVEVERQGNTWTVKRITRT [Q17E]  3.31 kcal/mol
32. EEKRQVKQVAKEKCLEQSPNSKVQVRRVQKQGNTIRVELELRTNGKKENYTVEVERQGNTWTVKRITRT [L14C]  3.29 kcal/mol
33. EEKRQVKQVAKEKLLCQSPNSKVQVRRVQKQGNTIRVELELRTNGKKENYTVEVERQGNTWTVKRITRT [E16C]  3.27 kcal/mol
34. EEKRQVKQVAKEKLLGQSPNSKVQVRRVQKQGNTIRVELELRTNGKKENYTVEVERQGNTWTVKRITRT [E16G]  3.25 kcal/mol
35. EEKRQVKQVAKEQLLEQSPNSKVQVRRVQKQGNTIRVELELRTNGKKENYTVEVERQGNTWTVKRITRT [K13Q]  3.24 kcal/mol
36. EEKRQVKQVAKEKLLKQSPNSKVQVRRVQKQGNTIRVELELRTNGKKENYTVEVERQGNTWTVKRITRT [E16K]  3.24 kcal/mol
37. EEKRQVKQVAKEKLLNQSPNSKVQVRRVQKQGNTIRVELELRTNGKKENYTVEVERQGNTWTVKRITRT [E16N]  3.21 kcal/mol
38. EEKRQVKQVAKEKLLHQSPNSKVQVRRVQKQGNTIRVELELRTNGKKENYTVEVERQGNTWTVKRITRT [E16H]  3.17 kcal/mol
39. EEKRQVKQVAKEKLLDQSPNSKVQVRRVQKQGNTIRVELELRTNGKKENYTVEVERQGNTWTVKRITRT [E16D]  3.16 kcal/mol
40. EEKRQVKQVAKEKLYEQSPNSKVQVRRVQKQGNTIRVELELRTNGKKENYTVEVERQGNTWTVKRITRT [L15Y]  3.14 kcal/mol
41. EEKRQVKQVAKEKALEQSPNSKVQVRRVQKQGNTIRVELELRTNGKKENYTVEVERQGNTWTVKRITRT [L14A]  3.13 kcal/mol
42. EEKRQVKQVAKEKLCEQSPNSKVQVRRVQKQGNTIRVELELRTNGKKENYTVEVERQGNTWTVKRITRT [L15C]  3.13 kcal/mol
43. EEKRQVKQVAKEKLEEQSPNSKVQVRRVQKQGNTIRVELELRTNGKKENYTVEVERQGNTWTVKRITRT [L15E]  3.1 kcal/mol
44. EEKRQVKQVAKEKLLRQSPNSKVQVRRVQKQGNTIRVELELRTNGKKENYTVEVERQGNTWTVKRITRT [E16R]  3.08 kcal/mol
45. EEKRQVKQVAKEKLLIQSPNSKVQVRRVQKQGNTIRVELELRTNGKKENYTVEVERQGNTWTVKRITRT [E16I]  3.04 kcal/mol
46. EEKRQVKQVAKEKLFEQSPNSKVQVRRVQKQGNTIRVELELRTNGKKENYTVEVERQGNTWTVKRITRT [L15F]  3.03 kcal/mol
47. EEKRQVKQVAKEKLIEQSPNSKVQVRRVQKQGNTIRVELELRTNGKKENYTVEVERQGNTWTVKRITRT [L15I]  3.02 kcal/mol
48. EEKRQVKQVAKEKLVEQSPNSKVQVRRVQKQGNTIRVELELRTNGKKENYTVEVERQGNTWTVKRITRT [L15V]  3.01 kcal/mol
49. EEKRQVKQVAKEKLAEQSPNSKVQVRRVQKQGNTIRVELELRTNGKKENYTVEVERQGNTWTVKRITRT [L15A]  2.99 kcal/mol
50. EEKRQVKQVAKEKLHEQSPNSKVQVRRVQKQGNTIRVELELRTNGKKENYTVEVERQGNTWTVKRITRT [L15H]  2.98 kcal/mol
51. EEKRQVKQVAKEKFLEQSPNSKVQVRRVQKQGNTIRVELELRTNGKKENYTVEVERQGNTWTVKRITRT [L14F]  2.92 kcal/mol
52. EEKRQVKQVAKEKLTEQSPNSKVQVRRVQKQGNTIRVELELRTNGKKENYTVEVERQGNTWTVKRITRT [L15T]  2.92 kcal/mol
53. EEKRQVKQVAKEKLWEQSPNSKVQVRRVQKQGNTIRVELELRTNGKKENYTVEVERQGNTWTVKRITRT [L15W]  2.92 kcal/mol
54. EEKRQVKQVAKEKLLWQSPNSKVQVRRVQKQGNTIRVELELRTNGKKENYTVEVERQGNTWTVKRITRT [E16W]  2.86 kcal/mol
55. EEKRQVKQVAKEKLLVQSPNSKVQVRRVQKQGNTIRVELELRTNGKKENYTVEVERQGNTWTVKRITRT [E16V]  2.86 kcal/mol
56. EEKRQVKQVAKEKLSEQSPNSKVQVRRVQKQGNTIRVELELRTNGKKENYTVEVERQGNTWTVKRITRT [L15S]  2.83 kcal/mol
57. EEKRQVKQVAKEKLLFQSPNSKVQVRRVQKQGNTIRVELELRTNGKKENYTVEVERQGNTWTVKRITRT [E16F]  2.82 kcal/mol
58. EEKRQVKQVAKENLLEQSPNSKVQVRRVQKQGNTIRVELELRTNGKKENYTVEVERQGNTWTVKRITRT [K13N]  2.71 kcal/mol
59. EEKRQVKQVAKEKLLYQSPNSKVQVRRVQKQGNTIRVELELRTNGKKENYTVEVERQGNTWTVKRITRT [E16Y]  2.61 kcal/mol
60. EEKRQVKQVAKEKLGEQSPNSKVQVRRVQKQGNTIRVELELRTNGKKENYTVEVERQGNTWTVKRITRT [L15G]  2.53 kcal/mol
61. EEKRQVKQVAKEKLNEQSPNSKVQVRRVQKQGNTIRVELELRTNGKKENYTVEVERQGNTWTVKRITRT [L15N]  2.5 kcal/mol
62. EEKRQVKQVAKEPLLEQSPNSKVQVRRVQKQGNTIRVELELRTNGKKENYTVEVERQGNTWTVKRITRT [K13P]  2.43 kcal/mol
63. EEKRQVKQVAKEKWLEQSPNSKVQVRRVQKQGNTIRVELELRTNGKKENYTVEVERQGNTWTVKRITRT [L14W]  2.29 kcal/mol
64. EEKRQVKQVAKEKTLEQSPNSKVQVRRVQKQGNTIRVELELRTNGKKENYTVEVERQGNTWTVKRITRT [L14T]  2.26 kcal/mol
65. EEKRQVKQVAKEKKLEQSPNSKVQVRRVQKQGNTIRVELELRTNGKKENYTVEVERQGNTWTVKRITRT [L14K]  2.18 kcal/mol
66. EEKRQVKQVAKEKSLEQSPNSKVQVRRVQKQGNTIRVELELRTNGKKENYTVEVERQGNTWTVKRITRT [L14S]  2.17 kcal/mol
67. EEKRQVKQVAKEKLLPQSPNSKVQVRRVQKQGNTIRVELELRTNGKKENYTVEVERQGNTWTVKRITRT [E16P]  2.15 kcal/mol
68. EEKRQVKQVAKEKRLEQSPNSKVQVRRVQKQGNTIRVELELRTNGKKENYTVEVERQGNTWTVKRITRT [L14R]  2.08 kcal/mol
69. EEKRQVKQVAKEKGLEQSPNSKVQVRRVQKQGNTIRVELELRTNGKKENYTVEVERQGNTWTVKRITRT [L14G]  2.07 kcal/mol
70. EEKRQVKQVAKEKLDEQSPNSKVQVRRVQKQGNTIRVELELRTNGKKENYTVEVERQGNTWTVKRITRT [L15D]  2.07 kcal/mol
71. EEKRQVKQVAKEKYLEQSPNSKVQVRRVQKQGNTIRVELELRTNGKKENYTVEVERQGNTWTVKRITRT [L14Y]  1.95 kcal/mol
72. EEKRQVKQVAKEKNLEQSPNSKVQVRRVQKQGNTIRVELELRTNGKKENYTVEVERQGNTWTVKRITRT [L14N]  1.92 kcal/mol
73. EEKRQVKQVAKEKQLEQSPNSKVQVRRVQKQGNTIRVELELRTNGKKENYTVEVERQGNTWTVKRITRT [L14Q]  1.9 kcal/mol
74. EEKRQVKQVAKEKLPEQSPNSKVQVRRVQKQGNTIRVELELRTNGKKENYTVEVERQGNTWTVKRITRT [L15P]  1.87 kcal/mol
75. EEKRQVKQVAKEKHLEQSPNSKVQVRRVQKQGNTIRVELELRTNGKKENYTVEVERQGNTWTVKRITRT [L14H]  1.79 kcal/mol
76. EEKRQVKQVAKEKPLEQSPNSKVQVRRVQKQGNTIRVELELRTNGKKENYTVEVERQGNTWTVKRITRT [L14P]  1.78 kcal/mol
77. EEKRQVKQVAKEKDLEQSPNSKVQVRRVQKQGNTIRVELELRTNGKKENYTVEVERQGNTWTVKRITRT [L14D]  1.74 kcal/mol
78. EEKRQVKQVAKEKELEQSPNSKVQVRRVQKQGNTIRVELELRTNGKKENYTVEVERQGNTWTVKRITRT [L14E]  1.7 kcal/mol
